Data on 6 molecules can be found in paper PMC8441410, “Phospho‐regulated Bim1/EB1 interactions trigger Dam1c ring assembly at the budding yeast outer kinetochore” (The EMBO Journal, 2021).

T1: Bik1-6xHis (S. cerevisiae, UniProt P11709 1-440)
T1 construct: Bik1, S. cerevisiae CLIP-170 homolog; Detected with an anti-penta-His antibody in SEC fractions; also called Bik1/CLIP-170; source: E. coli BL21 Rosetta, purified (HisTrap, gel filtration)
T1 sequence (looked up): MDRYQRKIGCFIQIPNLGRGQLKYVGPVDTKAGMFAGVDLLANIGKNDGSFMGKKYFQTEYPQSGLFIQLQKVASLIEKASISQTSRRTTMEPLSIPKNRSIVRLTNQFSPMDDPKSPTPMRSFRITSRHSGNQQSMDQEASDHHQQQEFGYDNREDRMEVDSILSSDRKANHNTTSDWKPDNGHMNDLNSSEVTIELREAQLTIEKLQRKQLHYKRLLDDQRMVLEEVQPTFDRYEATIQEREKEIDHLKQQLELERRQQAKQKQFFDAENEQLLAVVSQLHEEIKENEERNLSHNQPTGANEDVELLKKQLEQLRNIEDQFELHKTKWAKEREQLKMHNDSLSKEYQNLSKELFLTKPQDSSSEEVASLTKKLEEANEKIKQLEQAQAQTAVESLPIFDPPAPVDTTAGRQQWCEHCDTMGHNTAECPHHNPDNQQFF

B1: Duo1 subunit within recombinant Dam1^WTc (natural protein, S. cerevisiae, UniProt P53168 1-247, looked up)
chain: MSEQSQLDDSTIDKLIPQIFNEMRSNLNNTTNKFPKSTGGGASDNISANSNSIRSFNSITTQSLLKESESLDKITAMIKNVTAALKNNLPVYVNQVHEVCKSTNSILDSWINIHSQAGYIHKLMSDQTYLKLINDRLHNENVNTNDEDGSTLHNVIALKKKEILDLRQKLENRKGEKDAAPAKPPNQGLNPRYGVQSGRRPVPSAGISNNGRVRKTHVPASKRPSGIPRVTNRWTKPTASSSRKMFR
notes: Duo1, subunit of the Dam1 complex, S. cerevisiae; Stood in the cross-linking experiment as a subunit of m1; source: E. coli, purified as part of Dam1c
B2: Dam1 subunit within recombinant Dam1^WTc (natural protein, S. cerevisiae, UniProt P53267 1-343, looked up)
chain: MSEDKAKLGTTRSATEYRLSIGSAPTSRRSSMGESSSLMKFADQEGLTSSVGEYNENTIQQLLLPKIRELSDSIITLDSNFTRLNFIHESLADLNESLGSLLYGIMSNSWCVEFSQAPHDIQDDLIAIKQLKSLEDEKNNLVMELSNMERGIKRKKDEQGENDLAKASQNKQFNQPLFPSSQVRKYRSYDNRDKRKPSKIGNNLQVENEEDYEDDTSSEASFVLNPTNIGMSKSSQGHVTKTTRLNNNTNSKLRRKSILHTIRNSIASGADLPIENDNVVNLGDLHPNNRISLGSGAARVVNGPVTKNRNSMFSGRAERKPTESRHSVAKKTEKKINTRPPFR
notes: Dam1, subunit of the Dam1 complex, S. cerevisiae; Stood in the cross-linking experiment as a subunit of m1; source: E. coli, purified as part of Dam1c
B3: Dad4 subunit within recombinant Dam1^WTc (natural protein, S. cerevisiae, UniProt P69851 1-72, looked up)
chain: MENPHEQVQANILSRIIGNVKRLNESVAILNQELVTINNRNKNLEIMGAICDNYHSSVQFNLEATNNKKPPL
notes: Dad4, subunit of the Dam1 complex, S. cerevisiae; Stood in the cross-linking experiment as a subunit of m1; source: E. coli, purified as part of Dam1c
B4: Spc19 subunit within recombinant Dam1^WTc (natural protein, S. cerevisiae, UniProt Q03954 1-165, looked up)
chain: MTDALEQSVLALEGTVSVLKDSVESLKCANEPSTNLASTMLQTKRVFRLVPEYDVERSKLDLIEEVEPLVRTLGDKLRKSMGRMQRELDTLQQTYELNDLRLKKNISMDDDDALNSPDMGQEYEGRDADDVVMMASSTNEELEELKKLKEKKKQLENKLEILKQK
notes: Spc19, subunit of the Dam1 complex, S. cerevisiae; Stood in the cross-linking experiment as a subunit of m1; source: E. coli, purified as part of Dam1c
B5: Spc34 subunit within recombinant Dam1^WTc (natural protein, S. cerevisiae, UniProt P36131 1-295, looked up)
chain: MGESLDRCIDDINRAVDSMSTLYFKPPGIFHNAILQGASNKASIRKDITRLIKDCNHDEAYLLFKVNPEKQSVSRRDGKEGVFDYVIKRDTDMKRNRRLGRPGEKPIIHVPKEVYLNKDRLDLNNKRRRTATTSGGGLNGFIFDTDLIGSSVISNSSSGTFKALSAVFKDDPQIQRLLYALENGSVLMEEESNNQRRKTIFVEDFPTDLILKVMAEVTDLWPLTEFKQDYDQLYHNYEQLSSKLRFIKKEVLLQDDRLKTMSQYHPSSSHDVAKIIRKEKDEIRRLEMEIANLQE
notes: Spc34, subunit of the Dam1 complex, S. cerevisiae; Stood in the cross-linking experiment as a subunit of m1; source: E. coli, purified as part of Dam1c
B6: Bim1 (yeast homolog of EB1), recombinant (natural protein, S. cerevisiae, UniProt P40013 1-344, looked up)
chain: MSAGIGESRTELLTWLNGLLNLNYKKIEECGTGAAYCQIMDSIYGDLPMNRVKFNATAEYEFQTNYKILQSCFSRHGIEKTVYVDKLIRCKFQDNLEFLQWLKKHWIRHKDESVYDPDARRKYRPIITNNSATKPRTVSNPTTAKRSSSTGTGSAMSGGLATRHSSLGINGSRKTSVTQGQLVAIQAELTKSQETIGSLNEEIEQYKGTVSTLEIEREFYFNKLRDIEILVHTTQDLINEGVYKFNDETITGHGNGNGGALLRFVKKVESILYATAEGFEMNDGEDELNDKNLGEHGTVPNQGGYANSNGEVNGNEGSNHDVIMQNDEGEVGVSNNLIIDEETF
notes: Bim1, S. cerevisiae microtubule plus end-tracking protein; CH domain, linker, coiled coil, EBH domain, C-terminal ETF; also called Bim1/EB1; source: E. coli, purified (GSTrap, further steps as in Zimniak et al 2009)

Assay [1] deals with B6. Description: cross-linking; BS3-H12/D12 600 µM, 35°C, 45 min; 60 µg Dam1c without or with 7.4 µg Bim1; cross-linked lysines identified by mass spectrometry. The following applies: both partners purified.
For assay [2], the target named is B2. The description is as above. The following applies: both partners purified.
Assay [3] concerns the target B5. Described as above. The following applies: both partners purified.
In assay [4] the target is B1. The assay is described as above. To be noted: both partners purified.
For the next assay, the target named is T1, Bik1-6xHis. Description: SEC; analytical, Superose 6 Increase 3.2/300; 25 mM HEPES pH 7.4, 200 mM NaCl, 1 mM MgCl2, 0.5 mM TCEP, 2.5% glycerol; fractions by SDS-PAGE or Western blot; Dam1c with Bim1-Bik1 also at 5, 7.5, 10 µM input and at 100 mM NaCl. The following applies: both partners purified. (In gel filtration, larger molecules generally elute earlier.)

Assay [5] deals with Dam1 complex, wild type (Dam1^WTc), recombinant, with Hsk3-6xHis (S. cerevisiae) (UniProt P53267). Kind of assay: pull-down; Ndc80c-Flag on anti-Flag M2 agarose beads (loaded from Sf9 lysate, washed); Dam1c or Bim1 alone or Dam1c pre-incubated with increasing Bim1 (up to 16 µM), 4°C 15 min; 25 mM HEPES pH 7.4, 200 mM NaCl, 0.01% Triton X-100; eluted with 3xFlag peptide, SDS-PAGE.

For the molecule B1, the binding result in assay [1], in assay [2] and in assay [3] was “binds” in each case. For the molecule B2, in assay [1], the binding result is “binds”. Regarding B3, the binding result in assay [1] is given as “binds”. Turning to B4, the binding result in assay [1] and in assay [4] was “binds” throughout. For B5, the binding result in assay [1] was “binds”. Take B6: in the assay with Bik1-6xHis, the binding result is given as “binds”. In addition, the decrease of the amount of Dam1c bound to Ndc80c with Bim1 up to 16 µM in assay [5] was 30%.
